Like-named read-outs stand apart in the source and are kept apart here.
T1: NKG2D (human, UniProt P26718 78-216)
T1 chain: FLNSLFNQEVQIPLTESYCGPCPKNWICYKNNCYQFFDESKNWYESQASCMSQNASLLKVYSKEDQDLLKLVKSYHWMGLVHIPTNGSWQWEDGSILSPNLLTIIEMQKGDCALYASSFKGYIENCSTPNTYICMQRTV

B1: XENP40557 B7H3 Fab x NKG2D scFv (mAb-scFv) (antibody)
chain 1: EVQLLESGGGLVQPGGSLRLSCAVSGFSLSSYGVIWVRQAPGKGLEYVSWVSSGGSTNYASSVKGRFTISRDTSKNTVYLQMNSLRAEDTAVYFCARGATNSGTDIWGPGTLVTVSSASTKGPSVFPLAPSSKSTSGGTAALGCLVKDYFPEPVTVSWNSGALTSGVHTFPAVLQSSGLYSLSSVVTVPSSSLGTQTYICNVNHKPSDTKVDKKVEPKSCDKTHTCPPCPAPPVAGPSVFLFPPKPKDTLMISRTPEVTCVVVDVKHEDPEVKFNWYVDGVEVHNAKTKPREEEYNSTYRVVSVLTVLHQDWLNGKEYKCKVSNKALPAPIEKTISKAKGQPREPQVYTLPPSREEMTKNQVSLTCDVSGFYPSDIAVEWESDGQPENNYKTTPPVLDSDGSFFLYSKLTVDKSRWEQGDVFSCSVMHEALHNHYTQKSLSLSPGK
chain 2: not shown
chain 3: DIVMTQSPSSLSASVGDRVTITCRASQSINSWLSWYQQKPGKPPKLLIYGASNLASGVPSRFKGSGSGTDFTLTISSLQPEDFATYYCQNNYGIIAAGATFGGGTKVEIKRTVAAPSVFIFPPSDEQLKSGTASVVCLLNNFYPREAKVQWKVDNALQSGNSQESVTEQDSKDSTYSLSSTLTLSKADYEKHKVYACEVTHQGLSSPVTKSFNRGEC
B2: XENP40376 B7H3 Fab x NKG2D scFv (1+1) (antibody)
chain 1: EVQLLESGGGLVQPGGSLRLSCAVSGFSLSSYGVIWVRQAPGKGLEYVSWVSSGGSTNYASSVKGRFTISRDTSKNTVYLQMNSLRAEDTAVYFCARGATNSGTDIWGPGTLVTVSSASTKGPSVFPLAPSSKSTSGGTAALGCLVKDYFPEPVTVSWNSGALTSGVHTFPAVLQSSGLYSLSSVVTVPSSSLGTQTYICNVNHKPSDTKVDKKVEPKSCDKTHTCPPCPAPPVAGPSVFLFPPKPKDTLMISRTPEVTCVVVDVKHEDPEVKFNWYVDGVEVHNAKTKPREEEYNSTYRVVSVLTVLHQDWLNGKEYKCKVSNKALPAPIEKTISKAKGQPREPQVYTLPPSREEMTKNQVSLTCDVSGFYPSDIAVEWESDGQPENNYKTTPPVLDSDGSFFLYSKLTVDKSRWEQGDVFSCSVMHEALHNHYTQKSLSLSPGK
chain 2: not shown
chain 3: DIVMTQSPSSLSASVGDRVTITCRASQSINSWLSWYQQKPGKPPKLLIYGASNLASGVPSRFKGSGSGTDFTLTISSLQPEDFATYYCQNNYGIIAAGATFGGGTKVEIKRTVAAPSVFIFPPSDEQLKSGTASVVCLLNNFYPREAKVQWKVDNALQSGNSQESVTEQDSKDSTYSLSSTLTLSKADYEKHKVYACEVTHQGLSSPVTKSFNRGEC
B3: cynomolgus NKG2D (receptor)
chain: FLNSLFNQEVQIPLTESYCGPCPKNWICYKNNCYQFFNESKNWYESQASCMSQNASLLKVYSKEDQDLLKLVKSYHWMGLVHIPTNGSWQWEDGSILSPNLLTIIEMQKGDCALYASSFKGYIENCSIPNTYICMQRTV
B4: human NKG2D (Fc fusion)
chain: FLNSLFNQEVQIPLTESYCGPCPKNWICYKNNCYQFFDESKNWYESQASCMSQNASLLKVYSKEDQDLLKLVKSYHWMGLVHIPTNGSWQWEDGSILSPNLLTIIEMQKGDCALYASSFKGYIENCSTPNTYICMQRTV

Tests used:
NKG2D = target: T1, NKG2D
XENP38100 (1D2B4) [1] = assay: Octet
XENP38100 (1D2B4) [2] = assay: Octet; remark: listed apart in the source

Row | Binder | Kd (NKG2D) [nM] | further results
1 | B1 | 28.8 | –
2 | B2 | 7.72 | –
3 | B3 | – | Kd (XENP38100 (1D2B4) [1]): 5.05 nM
4 | B4 | – | Kd (XENP38100 (1D2B4) [2]): 10.4 nM
